Substrate in this data set: N[C@@H](CC(=O)O)C(=O)O
The data set is described as follows: purified protein. Particulars: 37 °C, 5 min, PBS pH 7.0 (pH of the activity assay), pyruvoyl-dependent.

Setting [1] is: variant N3, I126* = C-terminal deletion from residue 126.
Where [2] appears, read: variant Y1, I126* = C-terminal deletion from residue 126.

B1: BsADC (L-aspartate-alpha-decarboxylase, panD-wt) (Bacillus subtilis subsp. subtilis str. 168) (protein)
chain 1: MYRTMMSGKLHRATVTEANLNYVG
chain 2: SITIDEDLIDAVGMLPNEKVQIVNNNNGARLETYIIPGKRGSGVICLNGAAARLVQEGDKVIIISYKMMSDQEAASHEPKVAVLNDQNKIEQMLGNEPARTIL
One may read the Km as the substrate concentration at which the rate is half of its maximum. Usually kcat stands for the maximal rate divided by the concentration of active sites. Broadly, the kcat/Km is the turnover number divided by the Michaelis constant. In the case of B1, the Km stood at 3.69 ± 0.33 mM, the kcat was 4.25 s⁻¹ and the catalytic efficiency (kcat/Km) came to 1150 M⁻¹ s⁻¹.

B2: BsADC (L-aspartate-alpha-decarboxylase, panD-wt) (Bacillus subtilis subsp. subtilis str. 168; A99E/DEL126-127/I88M/K113R/K63N/S7N) (protein)
chain 1: MYRTMMNGKLHRATVTEANLNYVG
chain 2: SITIDEDLIDAVGMLPNEKVQIVNNNNGARLETYIIPGNRGSGVICLNGAAARLVQEGDKVIIMSYKMMSDQEAESHEPKVAVLNDQNRIEQMLGNEPART
Regarding B2, under setting [1], the Km came out at 3.22 ± 0.15 mM, the kcat was 8.29 s⁻¹ and the kcat/Km was 2570 M⁻¹ s⁻¹.

B3: BsADC (L-aspartate-alpha-decarboxylase, panD-wt) (Bacillus subtilis subsp. subtilis str. 168; A99E/DEL126-127/I88M/K113R/K63N/S7Y) (protein)
chain 1: MYRTMMYGKLHRATVTEANLNYVG
chain 2: SITIDEDLIDAVGMLPNEKVQIVNNNNGARLETYIIPGNRGSGVICLNGAAARLVQEGDKVIIMSYKMMSDQEAESHEPKVAVLNDQNRIEQMLGNEPART
On to B3, for which, under setting [2], the Km is 3.82 ± 0.29 mM, the kcat amounted to 7.26 s⁻¹ and the catalytic efficiency (kcat/Km) amounted to 1900 M⁻¹ s⁻¹.

Source of the values: publication PMC11808261.
